Laboratory results from patent US20180185504A1 (Regeneron, published 2018).

T1: human PRLR on cells (endogenous on T47D, T47D#11, MCF7); introduced in HEK293/hPRLR/STAT5-Luc, 293/hPRLR, … (human, UniProt P16471 25-622)
T1 construct: no tag is stated for these lines; also called prolactin receptor
T1 sequence: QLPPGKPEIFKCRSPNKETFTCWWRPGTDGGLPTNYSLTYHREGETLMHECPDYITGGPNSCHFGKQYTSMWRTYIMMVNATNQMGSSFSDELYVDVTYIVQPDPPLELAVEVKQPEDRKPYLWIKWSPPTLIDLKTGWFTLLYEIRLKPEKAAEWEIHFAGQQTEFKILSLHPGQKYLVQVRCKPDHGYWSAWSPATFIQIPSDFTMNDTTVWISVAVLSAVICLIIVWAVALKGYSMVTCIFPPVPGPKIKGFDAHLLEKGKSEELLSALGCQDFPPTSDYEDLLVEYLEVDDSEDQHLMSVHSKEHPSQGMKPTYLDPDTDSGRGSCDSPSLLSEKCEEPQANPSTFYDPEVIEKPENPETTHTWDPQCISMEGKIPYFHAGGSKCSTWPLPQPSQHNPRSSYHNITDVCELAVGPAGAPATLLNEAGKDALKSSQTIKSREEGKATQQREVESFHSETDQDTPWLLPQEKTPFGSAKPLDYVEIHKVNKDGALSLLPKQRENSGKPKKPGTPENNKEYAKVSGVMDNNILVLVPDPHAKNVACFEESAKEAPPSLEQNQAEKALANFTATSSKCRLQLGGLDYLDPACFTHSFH

T2: hPRLR.mFc (soluble dimeric human PRLR) (human)
T2 construct: dimeric PRLR construct
T2 chain: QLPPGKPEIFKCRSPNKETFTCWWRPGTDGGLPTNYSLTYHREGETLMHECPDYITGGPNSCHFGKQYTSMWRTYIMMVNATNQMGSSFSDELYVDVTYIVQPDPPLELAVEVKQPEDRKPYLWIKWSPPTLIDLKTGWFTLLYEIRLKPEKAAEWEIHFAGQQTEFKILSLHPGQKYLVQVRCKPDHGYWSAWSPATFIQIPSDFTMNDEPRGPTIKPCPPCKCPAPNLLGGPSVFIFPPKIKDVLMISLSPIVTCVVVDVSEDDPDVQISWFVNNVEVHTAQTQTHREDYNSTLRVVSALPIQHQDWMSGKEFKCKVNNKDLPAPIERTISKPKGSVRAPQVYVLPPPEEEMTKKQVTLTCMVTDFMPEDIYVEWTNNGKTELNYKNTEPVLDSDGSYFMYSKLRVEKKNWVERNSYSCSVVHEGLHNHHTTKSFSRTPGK

T3: monkey macaca fascicularis PRLR construct with an HA tag on HEK293/mfPRLR cells (macaca fascicularis, UniProt A0A2K5WXK1 25-619)
T3 construct: stably transfected into HEK293
T3 sequence: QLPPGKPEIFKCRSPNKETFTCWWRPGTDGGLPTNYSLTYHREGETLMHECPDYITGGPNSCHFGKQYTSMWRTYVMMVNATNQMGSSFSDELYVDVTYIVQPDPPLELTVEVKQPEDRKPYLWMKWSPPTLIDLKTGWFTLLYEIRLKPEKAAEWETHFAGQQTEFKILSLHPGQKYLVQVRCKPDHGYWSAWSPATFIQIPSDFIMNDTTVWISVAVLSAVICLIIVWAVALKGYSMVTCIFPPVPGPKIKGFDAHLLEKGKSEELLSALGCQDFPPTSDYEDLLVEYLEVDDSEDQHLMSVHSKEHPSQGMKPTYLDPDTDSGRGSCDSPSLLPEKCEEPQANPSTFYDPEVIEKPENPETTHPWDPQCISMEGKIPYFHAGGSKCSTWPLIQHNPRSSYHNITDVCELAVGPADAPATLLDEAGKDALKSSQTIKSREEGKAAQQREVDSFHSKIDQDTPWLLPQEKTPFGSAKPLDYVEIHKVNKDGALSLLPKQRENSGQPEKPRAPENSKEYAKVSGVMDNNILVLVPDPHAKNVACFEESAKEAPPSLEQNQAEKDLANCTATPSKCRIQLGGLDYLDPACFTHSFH

T4: human PRLR construct with an HA tag on HEK293/hPRLR cells (human, UniProt P16471 25-622)
T4 sequence: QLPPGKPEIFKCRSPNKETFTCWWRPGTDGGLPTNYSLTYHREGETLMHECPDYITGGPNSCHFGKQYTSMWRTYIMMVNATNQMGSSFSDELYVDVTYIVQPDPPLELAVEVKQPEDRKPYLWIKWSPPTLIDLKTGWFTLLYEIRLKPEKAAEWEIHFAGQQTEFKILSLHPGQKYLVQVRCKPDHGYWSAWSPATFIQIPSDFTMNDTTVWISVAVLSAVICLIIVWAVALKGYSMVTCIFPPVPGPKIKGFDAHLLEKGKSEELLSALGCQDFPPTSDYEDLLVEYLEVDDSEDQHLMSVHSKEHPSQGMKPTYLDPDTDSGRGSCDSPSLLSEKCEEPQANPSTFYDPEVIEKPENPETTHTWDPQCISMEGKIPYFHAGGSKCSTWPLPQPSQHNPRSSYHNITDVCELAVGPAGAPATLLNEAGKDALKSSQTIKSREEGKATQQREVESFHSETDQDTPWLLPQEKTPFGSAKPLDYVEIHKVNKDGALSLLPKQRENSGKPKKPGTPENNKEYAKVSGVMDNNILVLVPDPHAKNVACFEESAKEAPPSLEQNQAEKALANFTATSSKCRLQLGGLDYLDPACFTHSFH


Experiments:
[1] = molecular target: T1, human PRLR on cells (endogenous on …); assay: imaging of alexa488 intensity on T47D cells
Protocol: Briefly, 20,000 T47D cells were seeded in collagen coated 96 well plates. […] Cells were then incubated with alexa488 conjugated anti-hFc Fab secondary antibodies for 30 minutes on ice followed by two additional PBS washes. Antibodies were allowed to internalize for 1 h at 37° C. in internalization buffer (PBS+2% FBS) or remained at 4° C. Cells were fixed in 4% formaldehyde, nuclei were stained with DRAQ5 (Cell signaling), and images were acquired on the ImageXpress micro XL (Molecular Devices). Whole cell alexa488 intensity at 37° C. (Binding) and the alexa488 intensity in the intracellular vesicles at 37° C. (Internalization) were determined via Columbus image analysis software (PerkinElmer).

[2] = molecular target: T2, hPRLR.mFc (soluble dimeric human PRLR); assay: SPR (Biacore), antibody capture, 37 C
Protocol: Measurements were conducted on a T200 Biacore instrument. Kinetic association (kₐ) and dissociation (kd) rate constants were determined by processing and fitting the data to a 1:1 binding model using Scrubber 2.0 curve fitting software.

[3] = molecular target: T1, human PRLR on cells (endogenous on …); assay: cell-based or functional assay
[4] = molecular target: T3, monkey macaca fascicularis PRLR …; assay: FACS on HEK293/mfPRLR cells
[5] = molecular target: T1, human PRLR on cells (endogenous on …); assay: cell-based or functional assay; remark: listed apart in the source
[6] = molecular target: T1, human PRLR on cells (endogenous on …); assay: FACS on T47D cells
[7] = molecular target: T4, human PRLR construct with an HA tag on …; assay: FACS on HEK293/hPRLR cells

| Binder | % Total Binding relative to Control I [1] [%] | Kd [2] [pM] | T 1/2 [2] [h] | koff [2] [s⁻¹] | kon [2] [M⁻¹ s⁻¹] | IC50 of Blocking 5 nM PRL [M] (STAT5-Luc reporter, HEK293/hPRLR/STAT5-Luc cells) [3] | Percent Blocking at 100 nM Antibody (STAT5-Luc reporter) [3] [%] | FACS Cell Binding (Fold Above Background) [4] [fold] | % Internalization relative to Control I (T47D cells, imaging) [5] [%] | FACS Cell Binding (Fold Above Background) [6] [fold] | FACS Cell Binding (Fold Above Background) [7] [fold] |
| --- | --- | --- | --- | --- | --- | --- | --- | --- | --- | --- | --- |
| H1H6976N (antibody, human IgG1, V domains shown, also called H2M6976N) VH: EVQLLESGGGFVQPGGSLRLSCAASGFTFSSYAMSWVRQAPGKGLEWVSIISSNGRYTYYADSVKGRFTISRDNSKNTLYLQMNSLRAEDTAVYYCATVTGDWFDPWGQGTLVTVSS VL: DIQLTQSPSFLSASVGDRVTITCWASQDIDISLAWYQQKPGKAPKLLIYAASTLQSGVPSKFSGSGSGTDFTLTISSLQPEDFSTYYCQQLNSYPITFGQGTRLDIK | 180 | 102 | 1.38 | 0.00014 | 1.37e+06 | – | 23 | 29 | 170 | 37 | 8 |
| H1H6781P (antibody, human IgG1, V domains shown, human IgG1 Fc (H1H)) VH: EVQLVESGGDLVQPGESLRLSCTASGFTFNSYEMNWVRQAPGKGLEWVSYISSSGGTKYYVDSVKGRFTISRDNAKKSLYLQMNSLRADDTALYYCARLNGVDVFDIWGQGTMVTVSS VL: DIQMTQSPSSLSASVGDRVTITCRASQDIFNYLAWFQQKPGKVPELLISAASTLQSGVPSRFSGSGSGTYFTLTISSLQPEDIATYYCQRYNSAPLTFGGGTKVEIK | 166 | 226 | 1.95 | 9.84e-05 | 436000 | 2.7e-11 | 100 | 26 | 165 | 40 | 37 |
| H1H6958N2 (antibody, human IgG1, V domains shown, also called H2M6958N2) VH: QVQLVESGGGVVQPGRSLRLSCGASGFTFRNYGMQWVRQGPGKGLEWVTLISFDGNDKYYADSVKGRFTISRDNSKNTLFLQMNSLRTEDTAVYYCARGGDFDYWGQGTLVTVSS VL: DIQMTQSPSSLSASVGDRVTITCRASQDIRKDLGWYQQKPGKAPKRLIYAASSLHSGVPSRFSGSGSGTEFTLTISSLQPEDFATYYCLQHNSYPMYTFGQGTKLEIK | 162 | 167 | 1.39 | 0.000139 | 829000 | 1.98e-10 | 100 | 30 | 169 | 37 | 35 |
| H1H6774P (antibody, human IgG1, V domains shown, human IgG1 Fc (H1H)) VH: EVQLVESGGGLAQPGGSLRLSCVASGFTFSTYWMSWVRQAPGKGLDWVGNIKQDGSEQNYVDSVRGRFTISRDNAKNSLFLQMNSLRAEDTGVYYCATLLTKGDYWGQGTLVTVSS VL: DIQMTQSPSSLSASVGDSVTITCRASQDISNYLDWFQQKPGKAPKSLIYAASILQGGVPSRFSGSGYGTDFTLTISSLQPEDFATYYCRQYKTYPFTFGPGTKVDIK | 174 | 138 | 1 | 0.000194 | 1.41e+06 | – | 0 | 29 | 162 | 39 | 1 |

More lines, in order of falling Kd [2], values ahead:

| % Total Binding relative to Control I [1] [%] | Kd [2] [pM] | T 1/2 [2] [h] | koff [2] [s⁻¹] | kon [2] [M⁻¹ s⁻¹] | IC50 of Blocking 5 nM PRL [M] (STAT5-Luc reporter, HEK293/hPRLR/STAT5-Luc cells) [3] | Percent Blocking at 100 nM Antibody (STAT5-Luc reporter) [3] [%] | FACS Cell Binding (Fold Above Background) [4] [fold] | % Internalization relative to Control I (T47D cells, imaging) [5] [%] | FACS Cell Binding (Fold Above Background) [6] [fold] | FACS Cell Binding (Fold Above Background) [7] [fold] | Binder |
| --- | --- | --- | --- | --- | --- | --- | --- | --- | --- | --- | --- |
| 166 | 282 | 1.38 | 0.000138 | 491000 | – | 59 | 27 | 161 | 38 | 37 | H1H6783P (antibody, human IgG1, V domains shown, human IgG1 Fc (H1H)) VH: QVQLQQSGPGLVKPSQTLSLTCAISGDSVSSNTFAWNWIRQSPSRGLEWLGRTYYRSKWYIDYAESVKSRITITPDTSKNQFSLQLNSVTPEDTALYYCAGGYTYAPRGAFDIWGQGTMVTVSS VL: not shown |
| 168 | 256 | 1.65 | 0.000117 | 456000 | 3.45e-10 | 100 | 26 | 169 | 40 | 37 | H1H6785P (antibody, human IgG1, V domains shown, human IgG1 Fc (H1H)) VH: EVQLVESGGGLVQPGGSLRLSCAASGFTFSSYEMNWVRQAPGKGLEWISYISSRGGTIYYADSIKGRFTIYRDNARNSLYLQMNSLRAEDTAIYYCARLSGVDIFDIWGQGTMVTVSS VL: DIQMTQSPSSLSASVGDRVTITCRASQGISNYLAWYQQKPGKVPKLLIYFASTLQSGVPSRFSGGGSGTDFTLTISSLQPEDVATYYCQRYNSAPLTFGGGTKVEIK |
| 159 | 107 | 1.98 | 9.73e-05 | 907000 | 7.68e-10 | 100 | 28 | 169 | 41 | 38 | H1H6967N (antibody, human IgG1, V domains shown, also called H2M6967N) VH: EVQLVESGGDLVHPGRSLRLSCAASGFPFDEYAMHWVRQVPGKGLEWVSGISWSNNNIGYADSVKGRFTISRDNAKNSLYLQMNSLRPEDTAFYYCAKSGIFDSWGQGTLVTVSS VL: EIVMTQSPATLSVSPGERATLSCRASQSVSRDLAWYQQKPGQAPRLLIHGASTRATGIPARFSGSGSGAEFTLIISSLQSEDFAVYYCQQYNNWPLTFGGGTKVEIK |
